Residue numbers refer to the chain shown, from its start.
Experiments:
[1] = target: T1, human PD-L1 (construct not stated) (human, UniProt Q9NZQ7 19-239, limits assumed); experiment: SPR Biacore, affinity ranking
T1 construct: also called B7-H1 (PD-L1); PD-L1 protein

human PD-L1-Fc protein = target: T2, human PD-L1-Fc protein (human, UniProt Q9NZQ7 19-239); experiment: ELISA on coated human PD-L1-Fc
T2 construct: Coated on ELISA plates; also called huPD-L1; not shown: Fc part
Description: To evaluate the antigen binding activity, the antibodies were subjected to ELISA test. Briefly, microtiter plates were coated with human PD-L1-Fc protein at 2 μg/ml in PBS, 100 μl/well at 4° C. overnight, then blocked with 100 μl/well of 5% BSA. 4-fold dilutions of humanized antibodies starting from 10 μg/ml were added to each well and incubated for 1-2 hours at RT. The plates were washed with PBS/Tween and then incubate with […] antibody conjugated with Horse Radish Peroxidase (HRP) for 1 hour at RT. After washing, the plates were developed with TMB substrate and analyzed by spectrophotometer at OD 450-630 nm.

[2] = target: T3, human PD-L1 expressed on mammalian cells (human, UniProt Q9NZQ7 19-290); experiment: cell-based binding on Raji-PDL1 cells (FACS by paragraph 328; the y axis of the sheet is labelled IL2 (ng/ml)); EC50 table has no unit, x axis Concentration (nM)
T3 construct: whole, on cells; also called PDL1-CHOK1 cells; PDL1-Raji cells
Description: To evaluate the antigen binding property, the antibodies were analyzed for its binding to mammalian expressed PD-L1 by FACS. Briefly, PDL1-Raji cells were firstly incubated with 5-fold serious diluted humanized antibodies starting at 2 µg/ml at RT for 1 hour. After wash by FACS buffer (PBS with 2% FBS), the Alexa 488-anti-human IgG antibody was added to each well and incubated at RT for 1 hour. The MFI of Alexa 488 was evaluated by FACSAriaIII.

[3] = target: T4, human LAG3-His protein (Sinobio, 16498-H08H) (human, UniProt P18627 23-450); experiment: ELISA on coated human LAG3-His, panel LAG3
T4 construct: also called human LAG3 protein; not shown: His tag
T4 sequence (looked up): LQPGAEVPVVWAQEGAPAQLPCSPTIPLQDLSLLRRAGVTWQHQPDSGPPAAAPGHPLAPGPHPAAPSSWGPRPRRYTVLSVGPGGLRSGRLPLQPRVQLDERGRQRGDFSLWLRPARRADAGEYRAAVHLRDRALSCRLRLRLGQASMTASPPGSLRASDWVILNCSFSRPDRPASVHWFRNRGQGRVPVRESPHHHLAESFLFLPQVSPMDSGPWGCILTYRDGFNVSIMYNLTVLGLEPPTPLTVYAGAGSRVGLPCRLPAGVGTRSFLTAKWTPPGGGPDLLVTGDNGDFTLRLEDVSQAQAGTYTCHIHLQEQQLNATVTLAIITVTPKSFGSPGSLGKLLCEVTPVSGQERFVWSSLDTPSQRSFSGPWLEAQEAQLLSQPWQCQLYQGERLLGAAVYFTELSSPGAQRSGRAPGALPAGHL
Procedure, shortened: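 Bispecific antibodies were tested by ELISA on plates coated overnight at 4° C with human LAG3-His protein at 0.5 μg/ml in PBS (100 μl/well), then blocked with 5% BSA. Four-fold antibody dilutions starting from 100 nM were incubated for 1-2 hours at RT. EC50 was read off the binding curve.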

human LAG3 on cells [4] = target: T5, human LAG3 on cells (human, UniProt P18627 23-525); experiment: flow cytometry on activated CD4 T cells
T5 construct: whole, on cells; also called Jurkat-LAG3
T5 sequence (looked up): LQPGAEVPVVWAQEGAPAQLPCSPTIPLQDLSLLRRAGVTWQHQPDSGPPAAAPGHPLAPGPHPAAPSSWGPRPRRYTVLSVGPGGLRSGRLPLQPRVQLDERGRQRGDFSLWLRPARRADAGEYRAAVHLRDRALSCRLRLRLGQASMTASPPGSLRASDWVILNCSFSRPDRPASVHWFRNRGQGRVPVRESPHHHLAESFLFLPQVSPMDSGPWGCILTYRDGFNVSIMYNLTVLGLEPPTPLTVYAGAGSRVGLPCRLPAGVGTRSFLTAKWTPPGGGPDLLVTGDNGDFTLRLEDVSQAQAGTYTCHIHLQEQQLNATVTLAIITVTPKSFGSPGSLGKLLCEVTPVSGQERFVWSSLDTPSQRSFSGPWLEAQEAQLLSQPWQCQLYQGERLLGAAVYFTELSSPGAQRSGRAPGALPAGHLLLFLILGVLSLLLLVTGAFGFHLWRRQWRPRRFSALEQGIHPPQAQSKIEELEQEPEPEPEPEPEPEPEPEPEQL
Description: (§1) To further confirm affinity matured anti-LAG-3 antibodies could bind to cell-derived human LAG3, both inducible hLAG3 expressed Jurkat cells and activated PBMCs were used to test the binding capability of B3807b and B3810. In brief, Jurkat cells were resuspended in FACS buffer. Anti-LAG3 antibodies and isotype control were 4-fold serially diluted in FACS buffer with a dose ranging from 20 nM to 30 pM. The serially diluted antibodies were added to the cell suspension and incubated for 30 minutes on ice. Then after removal of unbound antibodies, cells were stained with anti-human IgG conjugated with Alexa Fluor 633 (Thermo, A21091). Fluorescence measurement was acquired on FACSCelesta flow cytometer and analyzed in Flowjo to determine the mean fluorescence intensities (MFI). To test anti-LAG3 antibodies' ability of binding to native human LAG3, PBMCs from health donor were stimulated with anti-CD3 (BD, 555336) and anti-CD28 (BD, 555725) both at a concentration of 1 ug/ml. Following 3 days' stimulation, cells were harvested and incubated with anti-LAG3 antibodies for 30 mins on ice. The cells were stained with anti-human CD4 and anti-human IgG. Analysis of antibodies binding to CD4+ cells were carried out on FACSCelesta flow cytometry. […] FIG. 31 is a graph showing the binding curve of anti-LAG3 antibodies.

[5] = target: T6, recombinant human LAG-3-ECD-human IgG1 fusion protein (human, UniProt P18627 23-450, biotin-labeled in the MHC class II blocking assays); experiment: ELISA as Example 2.2, coated human LAG3 ECD-Fc
T6 construct: extracellular domain; also called LAG-3-huFc; LAG-3-ECD-huFc; not shown: human IgG1 Fc
T6 sequence (looked up): T4 sequence (looked up)
Description: To evaluate the capability of the anti-LAG-3 antibodies to bind to human, rat, and mouse LAG3 the antibodies identified in Example 2.1 were evaluated for their binding property through ELISA. The human, rat and mouse LAG3 ECD-Fc protein were coated to ELISA plate at 1 μg/ml with 100 μl/well. Antibodies from Example 1 were serially diluted with ELISA diluent buffer. […] The resulting plates were washed and then labeled with anti-human IgG(Fab)-HRP antibody. The S31 can only bind to human LAG3. The S27 and T99 can bind to human LAG3 and rat/mouse LAG3 with lower potency. The S119 antibody can bind to human, rat and mouse LAG3 at high potency (FIGS. 22A-22D).

[6] = target: T7, recombinant his-tag human LAG3-ECD protein (human, UniProt P18627 23-450); experiment: SPR Biacore T200, capture method as Example 2.7
T7 construct: extracellular domain; not shown: his tag
T7 sequence (looked up): T4 sequence (looked up)

human LAG3 on cells [7] = target: T5, human LAG3 on cells; experiment: flow cytometry on hLAG3-expressing Jurkat cells
Description: as §1

[8] = target: T7, recombinant his-tag human LAG3-ECD …; experiment: Biacore, antibody captured, His-tag human LAG3-ECD injected (procedure of Example 2.16(B))
Description: (§2) The binding of B3807 to recombinant His-tag human LAG3-ECD protein was examined by Biacore T200 using a capture method. B3807 was captured using protein A which was immobilized on CM5 sensor chip. Serial concentrations of his-tag human LAG3-ECD protein (0-12 nM) were injected over capture antibodies at the flow rate of 30 μl/min. The dissociation phase was 900 s or 550 s.
(§3) B3807 was used in the following examples for further testing and preparing bispecific antibodies.

[9] = target: T7, recombinant his-tag human LAG3-ECD …; experiment: Biacore, antibody captured, His-tag human LAG3-ECD injected (procedure of Example 2.16(B)); column kd(1/s)
Description: as §2, §3

[10] = target: T7, recombinant his-tag human LAG3-ECD …; experiment: Biacore, antibody captured, His-tag human LAG3-ECD injected (procedure of Example 2.16(B)); column ka (1/Ms)
Description: as §2, §3

human LAG3 on cells [11] = target: T5, human LAG3 on cells; experiment: flow cytometry (MFI) on Jurkat-LAG3 cells, upper panel; EC50 table has no unit, x axis Concentration (nM); Table 31 of the text prints the rounded 0.4
Description: as §1

human LAG3 on cells [12] = target: T5, human LAG3 on cells; experiment: flow cytometry (MFI) on activated CD4 T cells, lower panel; EC50 table has no unit, x axis Concentration (nM); Table 31 of the text prints the rounded 0.33
Description: as §1

human LAG3 on cells [13] = target: T5, human LAG3 on cells; experiment: flow cytometry (MFI) on Jurkat-LAG3 cells, upper panel; EC50 table has no unit, x axis Concentration (nM); Table 31 of the text prints the rounded 0.5
Description: as §1

human LAG3 on cells [14] = target: T5, human LAG3 on cells; experiment: flow cytometry (MFI) on activated CD4 T cells, lower panel; EC50 table has no unit, x axis Concentration (nM); Table 31 of the text prints the rounded 0.39
Description: as §1

T1 sequence (Q9NZQ7 19-239 limits assumed): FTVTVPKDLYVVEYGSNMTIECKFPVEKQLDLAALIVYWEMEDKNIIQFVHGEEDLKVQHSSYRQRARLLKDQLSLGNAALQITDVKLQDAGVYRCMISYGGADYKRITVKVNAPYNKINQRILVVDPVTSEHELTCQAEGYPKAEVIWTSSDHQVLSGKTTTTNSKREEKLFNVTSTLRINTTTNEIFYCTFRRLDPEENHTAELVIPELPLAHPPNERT
T2 sequence (Q9NZQ7 19-239 limits assumed): as above
T3 sequence (Q9NZQ7 19-290): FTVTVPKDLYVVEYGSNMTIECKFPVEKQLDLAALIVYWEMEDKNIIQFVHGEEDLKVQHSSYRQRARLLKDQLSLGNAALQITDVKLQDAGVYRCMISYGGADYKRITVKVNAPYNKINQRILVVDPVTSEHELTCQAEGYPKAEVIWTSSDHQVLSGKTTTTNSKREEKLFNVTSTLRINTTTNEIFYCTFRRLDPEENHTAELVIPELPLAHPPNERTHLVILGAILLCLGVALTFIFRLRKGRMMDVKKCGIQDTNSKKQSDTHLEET

B1: B6 (antibody, V domains shown)
VH: EVQLVESGGGLVQPGGSLRLSCAASGFTFSSYDMSWVRQAPGKSLEWVATISDAGGYIYYRDSVKGRFTISRDNAKNSLYLQMNSLRDEDTAVYICARELPWRYALDYWGQGTTVTVSS
VL: DIQMTQSPSSLSASVGDRVTITCKASQDVTPAVAWYQQKPGKAPKLLIYSTSSRYTGVPSRFSGSGSGTDFTFTISSLQPEDIATYYCQQHYTTPLTFGQGTKLEIK
notes: also called B6 monoclonal antibody
[1]
  Kd: 1.02 nM
  koff: 0.000246 s⁻¹
  kon: 242000 M⁻¹ s⁻¹
Human PD-L1-Fc protein
  EC50 (read off the curve): ~0.2 µg/mL
[2]
  EC50: 1.2 nM

B2: 147(H3807)xH12 (bispecific antibody, human IgG4 S228P, kappa)
heavy: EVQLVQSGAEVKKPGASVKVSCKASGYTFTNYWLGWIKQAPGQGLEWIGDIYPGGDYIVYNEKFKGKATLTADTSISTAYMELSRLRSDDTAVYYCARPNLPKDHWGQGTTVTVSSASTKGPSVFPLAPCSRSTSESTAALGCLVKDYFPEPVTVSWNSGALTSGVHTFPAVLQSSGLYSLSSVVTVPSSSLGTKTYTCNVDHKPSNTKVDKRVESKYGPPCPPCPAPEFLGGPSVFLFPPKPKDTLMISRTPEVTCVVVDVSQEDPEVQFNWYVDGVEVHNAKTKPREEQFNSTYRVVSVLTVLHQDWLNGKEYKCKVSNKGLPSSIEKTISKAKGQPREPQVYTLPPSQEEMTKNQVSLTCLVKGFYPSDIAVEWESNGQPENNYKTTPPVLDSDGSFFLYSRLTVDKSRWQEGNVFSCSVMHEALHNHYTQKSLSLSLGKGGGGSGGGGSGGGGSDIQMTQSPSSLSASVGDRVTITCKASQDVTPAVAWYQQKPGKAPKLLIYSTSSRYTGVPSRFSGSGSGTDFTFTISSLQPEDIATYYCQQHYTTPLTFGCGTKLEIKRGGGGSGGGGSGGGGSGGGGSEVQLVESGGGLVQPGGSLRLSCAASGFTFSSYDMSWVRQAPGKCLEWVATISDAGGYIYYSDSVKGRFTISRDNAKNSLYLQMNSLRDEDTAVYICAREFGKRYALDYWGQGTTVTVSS
light: DIVMTQSPLSLPVTPGEPASISCRSSKSLLHSQGITYLYWYLQKPGQSPQLLIYQVSNLASGVPDRFSGSGSGTDFTLKISRVEAEDVGVYYCAQYLELPWTFGGGTKVEIKRTVAAPSVFIFPPSDEQLKSGTASVVCLLNNFYPREAKVQWKVDNALQSGNSQESVTEQDSKDSTYSLSSTLTLSKADYEKHKVYACEVTHQGLSSPVTKSFNRGEC
[3]
  EC50 (read off the curve): ~0.4 nM

B3: 147H 3807b (antibody, V domains shown)
VH: EVQLVQSGAEVKKPGASVKVSCKASGYTFTNYWLGWIKQAPGQGLEWIGDIYPGGDYIVYNEKFKGKATLTADTSISTAYMELSRLRSDDTAVYYCARPNLPKDHWGQGTTVTVSS
VL: DIVMTQSPLSLPVTPGEPASISCRSSKSLLHSNAITYLYWYLQKPGQSPQLLIYQVSNLASGVPDRFSGSGSGTDFTLKISRVEAEDVGVYYCAQYLELPWTFGGGTKVEIK
notes: also called B3807b
Human LAG3 on cells [4]
  EC50: 0.33 nM
[5]
  EC50: 0.41 nM
[6]
  Kd: 0.51 nM
  koff: 0.002 s⁻¹
  kon: 4e+06 M⁻¹ s⁻¹
Human LAG3 on cells [7]
  EC50: 0.4 nM
[8]
  Kd: 0.968 nM
[9]
  koff: 0.00334 s⁻¹
[10]
  kon: 3.46e+06 M⁻¹ s⁻¹
Human LAG3 on cells [11]
  EC50: 0.39 nM
Human LAG3 on cells [12]
  EC50: 0.333 nM

B4: 147H 3810 (antibody, V domains shown)
VH: B3 VH with T28L
VL: B3 VL with S61T
notes: also called B3810
Human LAG3 on cells [4]
  EC50: 0.39 nM
[5]
  EC50: 0.49 nM
[6]
  Kd: 0.41 nM
  koff: 0.0019 s⁻¹
  kon: 4.7e+06 M⁻¹ s⁻¹
Human LAG3 on cells [7]
  EC50: 0.5 nM
Human LAG3 on cells [13]
  EC50: 0.492 nM
Human LAG3 on cells [14]
  EC50: 0.391 nM

Reference: patent US20220363763A1 (ABL BIO, published 2022)
